Reference: PMC5815017

Columns and labels:
[1] = molecular target: T1, ParB (Caulobacter crescentus) (UniProt B8GW30); experiment: SPR; details: value assigned by figure order; SPR (ReDCaT, Biacore T200), HBS-EP+: 10 mM HEPES pH 7.4, 150 mM NaCl, 3 mM EDTA, 0.005% Surfactant P20, 25 C; ParB given as dimer
T1 sequence: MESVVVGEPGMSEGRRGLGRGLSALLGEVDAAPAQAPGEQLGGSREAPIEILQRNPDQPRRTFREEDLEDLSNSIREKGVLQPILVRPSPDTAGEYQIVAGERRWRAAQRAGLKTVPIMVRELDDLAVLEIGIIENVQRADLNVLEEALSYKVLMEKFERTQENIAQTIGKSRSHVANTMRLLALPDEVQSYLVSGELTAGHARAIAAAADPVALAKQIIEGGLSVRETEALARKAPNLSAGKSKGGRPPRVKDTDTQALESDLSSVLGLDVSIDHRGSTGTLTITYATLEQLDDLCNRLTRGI

[2] = molecular target: T2, Spo0J (ParB) (Bacillus subtilis) (UniProt P26497); experiment: SPR; details: apparent Kd; SPR (ReDCaT, Biacore T200), HBS-EP+: 10 mM HEPES pH 7.4, 150 mM NaCl, 3 mM EDTA, 0.005% Surfactant P20, 25 C; ParB given as dimer
T2 sequence: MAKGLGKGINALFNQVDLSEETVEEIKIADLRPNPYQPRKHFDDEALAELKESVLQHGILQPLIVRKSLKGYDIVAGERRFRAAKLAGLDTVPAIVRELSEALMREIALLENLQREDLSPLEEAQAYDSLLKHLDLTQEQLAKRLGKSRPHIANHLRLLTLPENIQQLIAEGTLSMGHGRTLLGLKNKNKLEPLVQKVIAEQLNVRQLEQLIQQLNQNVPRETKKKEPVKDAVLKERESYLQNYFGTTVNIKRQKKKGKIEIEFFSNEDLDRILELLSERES

## CGATGTTTCCACGTGAAACAAGGC / GCCTTGTTTCACGTGGAAACATCGCCTACCCTACGTCCTCCTGC [parS site 7]
[1]
  Kd: 144 nM

## AGAATGTTCCACGTGAAACAAAGA / TCTTTGTTTCACGTGGAACATTCTCCTACCCTACGTCCTCCTGC [B. subtilis parS 359]
[2]
  Kd: 114 nM
